Positions of bridges follow the written chain, without caps; N, C: chain ends.
Tests used:
human Met ectodomain [1] = biological target: T1, human Met ectodomain (Homo sapiens, UniProt P08581); assay: SPR with biotinylated macrocycle or hHGF immobilized, human Met ectodomain injected; assay type: binding; details: ligand immobilized on streptavidin sensor chip
T1 construct: human Met ectodomain-Fc chimera was immobilized; purchased Sino Biological Inc
Procedure: (§1) The binding constants of the macrocycles to the Met ectodomain were determined by SPR analysis using a Biacore T200 machine (GE Healthcare). The running buffer was HBS EP+ buffer (10 mM Hepes pH 7.4, 150 mM NaCl, 3 mM EDTA and 0.05% (v/v) SurfactantP20) containing 0.1% DMSO. To assess the interaction between human Met and the macrocycles, human Met ectodomain-Fc chimera was immobilized to a surface density of 1,200–1,600 response units (RUs) on a CM5 sensor chip using a human antibody capture kit (GE Healthcare). Macrocycle binding was tested by injecting varying concentrations of the macrocycle at a flow rate of 30 μl min^−1. Binding was quantified by a single-cycle kinetics method. To assess whether macrocycles and hHGF interacted with human, mouse and canine Met, each biotinylated macrocycle or hHGF was immobilized to a surface density of 200–500 RUs (for biotinylated macrocycles) or ~2,200 (for biotinylated hHGF) RUs on a CAP sensor chip using a Biotin CAPture Kit (GE Healthcare), following the standard protocol. Met binding was tested by injecting varying concentrations of the macrocycle at 30 μl min^−1 and quantifying by a single-cycle kinetics method. All data were fitted to the standard 1:1 binding model.
(§2) Supplementary Figure 4. SPR sensorgrams of human (blue), murine (red) and […]
(§3) Measured curves are shown in blue, red and green, and fitted curves are shown in black. […]

murine Met ectodomain = biological target: T2, murine Met ectodomain (Mus musculus, UniProt P16056); assay: SPR with biotinylated macrocycle or hHGF immobilized, murine Met ectodomain injected; assay type: binding; details: ligand immobilized on streptavidin sensor chip
T2 construct: murine Met ectodomain-Fc chimera proteins; purchased Sino Biological Inc
T2 sequence (P16056 25-931 limits assumed): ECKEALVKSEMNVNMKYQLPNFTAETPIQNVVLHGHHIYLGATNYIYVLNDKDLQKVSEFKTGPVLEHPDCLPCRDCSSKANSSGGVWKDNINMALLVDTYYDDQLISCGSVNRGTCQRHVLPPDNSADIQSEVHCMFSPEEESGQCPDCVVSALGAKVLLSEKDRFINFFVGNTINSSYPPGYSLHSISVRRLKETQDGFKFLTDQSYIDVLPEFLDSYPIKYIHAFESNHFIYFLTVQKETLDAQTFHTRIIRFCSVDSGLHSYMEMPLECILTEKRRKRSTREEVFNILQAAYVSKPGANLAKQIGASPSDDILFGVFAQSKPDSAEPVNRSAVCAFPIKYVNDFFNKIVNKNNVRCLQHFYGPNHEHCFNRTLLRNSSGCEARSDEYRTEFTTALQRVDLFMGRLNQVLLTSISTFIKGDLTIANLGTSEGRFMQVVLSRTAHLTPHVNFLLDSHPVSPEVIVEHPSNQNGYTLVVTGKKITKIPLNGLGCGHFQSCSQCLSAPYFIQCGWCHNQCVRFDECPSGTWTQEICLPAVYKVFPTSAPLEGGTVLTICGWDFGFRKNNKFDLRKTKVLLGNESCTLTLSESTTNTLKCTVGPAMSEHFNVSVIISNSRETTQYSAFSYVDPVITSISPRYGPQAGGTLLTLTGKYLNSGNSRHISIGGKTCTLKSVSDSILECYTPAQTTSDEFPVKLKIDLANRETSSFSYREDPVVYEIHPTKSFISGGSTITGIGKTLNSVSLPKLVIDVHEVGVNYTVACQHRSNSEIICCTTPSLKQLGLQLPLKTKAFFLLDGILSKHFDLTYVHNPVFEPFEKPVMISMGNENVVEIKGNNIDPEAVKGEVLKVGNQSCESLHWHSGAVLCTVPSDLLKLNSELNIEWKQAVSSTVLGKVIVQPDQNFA
Procedure: as §1, §2, §3

canine Met ectodomain = biological target: T3, canine Met ectodomain (Canis lupus familiaris, UniProt Q75ZY9); assay: SPR with biotinylated macrocycle or hHGF immobilized, canine Met ectodomain injected; assay type: binding; details: ligand immobilized on streptavidin sensor chip
T3 construct: canine Met ectodomain were purchased from Sino Biological Inc; purchased Sino Biological Inc
T3 sequence (Q75ZY9 25-935 limits assumed): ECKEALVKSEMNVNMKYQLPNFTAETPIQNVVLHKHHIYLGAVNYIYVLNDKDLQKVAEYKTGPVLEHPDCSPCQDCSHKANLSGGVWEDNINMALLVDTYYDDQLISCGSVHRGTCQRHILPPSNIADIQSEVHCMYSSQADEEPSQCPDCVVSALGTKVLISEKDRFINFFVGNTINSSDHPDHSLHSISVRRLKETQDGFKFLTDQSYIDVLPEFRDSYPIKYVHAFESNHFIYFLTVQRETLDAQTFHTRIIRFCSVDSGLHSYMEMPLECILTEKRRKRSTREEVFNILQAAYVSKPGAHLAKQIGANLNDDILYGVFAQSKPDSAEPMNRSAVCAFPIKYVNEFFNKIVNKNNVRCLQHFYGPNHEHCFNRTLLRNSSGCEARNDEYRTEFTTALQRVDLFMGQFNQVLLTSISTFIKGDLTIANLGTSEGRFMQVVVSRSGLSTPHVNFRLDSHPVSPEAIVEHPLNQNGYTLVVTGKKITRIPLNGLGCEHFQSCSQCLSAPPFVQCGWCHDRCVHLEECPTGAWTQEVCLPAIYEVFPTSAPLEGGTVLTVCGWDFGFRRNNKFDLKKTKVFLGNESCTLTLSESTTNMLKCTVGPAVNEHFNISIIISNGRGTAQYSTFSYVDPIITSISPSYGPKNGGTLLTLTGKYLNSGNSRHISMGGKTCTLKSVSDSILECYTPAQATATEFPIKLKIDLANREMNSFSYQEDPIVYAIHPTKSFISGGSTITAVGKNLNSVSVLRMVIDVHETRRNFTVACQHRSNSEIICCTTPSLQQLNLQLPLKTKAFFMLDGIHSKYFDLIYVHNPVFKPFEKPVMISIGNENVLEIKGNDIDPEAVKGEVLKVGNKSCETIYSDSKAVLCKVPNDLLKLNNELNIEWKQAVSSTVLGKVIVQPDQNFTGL
Procedure: as §1, §2, §3

Met (Y1234/1235) = biological target: T4, Met (Y1234/1235) (Homo sapiens, UniProt P08581); assay: Cell-based phospho-Met ELISA; details: EHMES-1 cells
T4 construct: endogenous in cells; host or cells: EHMES-1
T4 sequence (P08581 308-1390 limits assumed): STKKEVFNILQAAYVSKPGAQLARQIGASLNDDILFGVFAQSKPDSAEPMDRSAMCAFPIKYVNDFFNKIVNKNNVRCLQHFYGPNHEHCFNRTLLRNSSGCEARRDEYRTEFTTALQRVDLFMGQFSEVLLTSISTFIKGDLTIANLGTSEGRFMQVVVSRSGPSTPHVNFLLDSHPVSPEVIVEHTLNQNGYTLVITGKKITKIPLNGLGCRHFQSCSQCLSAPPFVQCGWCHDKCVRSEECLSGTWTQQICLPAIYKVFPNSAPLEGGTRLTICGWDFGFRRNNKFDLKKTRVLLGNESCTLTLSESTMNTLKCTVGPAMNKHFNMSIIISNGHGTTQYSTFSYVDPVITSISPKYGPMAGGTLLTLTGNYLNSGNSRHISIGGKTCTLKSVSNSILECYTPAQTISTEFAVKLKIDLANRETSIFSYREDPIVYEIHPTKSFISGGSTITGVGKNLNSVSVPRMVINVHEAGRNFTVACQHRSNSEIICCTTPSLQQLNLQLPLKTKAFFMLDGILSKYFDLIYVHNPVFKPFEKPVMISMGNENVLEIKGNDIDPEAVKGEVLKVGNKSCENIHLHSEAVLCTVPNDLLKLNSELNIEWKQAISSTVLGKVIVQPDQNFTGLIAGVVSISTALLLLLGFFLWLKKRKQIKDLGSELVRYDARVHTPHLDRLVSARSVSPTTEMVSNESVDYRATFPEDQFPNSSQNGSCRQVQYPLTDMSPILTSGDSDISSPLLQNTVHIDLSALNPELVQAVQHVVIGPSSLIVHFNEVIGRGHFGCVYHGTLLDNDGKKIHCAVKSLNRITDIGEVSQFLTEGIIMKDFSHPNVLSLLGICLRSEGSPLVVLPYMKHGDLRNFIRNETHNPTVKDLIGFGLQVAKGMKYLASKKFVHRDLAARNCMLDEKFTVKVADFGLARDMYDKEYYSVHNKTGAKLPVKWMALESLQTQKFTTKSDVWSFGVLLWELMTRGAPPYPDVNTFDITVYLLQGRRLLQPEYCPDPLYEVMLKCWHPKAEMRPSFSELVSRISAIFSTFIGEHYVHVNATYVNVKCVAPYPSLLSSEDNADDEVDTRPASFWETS
T4 sequence (P08581 25-307 limits assumed): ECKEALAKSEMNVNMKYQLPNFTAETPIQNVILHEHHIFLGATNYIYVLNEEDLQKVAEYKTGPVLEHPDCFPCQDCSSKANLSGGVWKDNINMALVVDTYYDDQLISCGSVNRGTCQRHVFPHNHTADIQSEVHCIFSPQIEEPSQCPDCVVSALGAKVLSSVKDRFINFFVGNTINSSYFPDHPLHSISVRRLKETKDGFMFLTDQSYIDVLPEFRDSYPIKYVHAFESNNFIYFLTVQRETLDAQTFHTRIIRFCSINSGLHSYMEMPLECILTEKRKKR
Procedure: EHMES-1 cells (2 × 10^4 cells per well) were seeded in a 96-well black μClear-plate (Greiner Bio-One). After 24 h, the cells were stimulated with hHGF or dimeric macrocycle in RPMI1640 medium supplemented with 10% FBS for 10 min. The cells were washed with ice-cold PBS, fixed with 4% paraformaldehyde (PFA) in PBS for 30 min and washed three times with PBS. The cells were blocked with 5% goat serum, 0.02% Triton X-100 in PBS for 30 min and then incubated for 12 h in phospho-Met (Tyr1234/1235) (D26) XP rabbit mAb diluted 1:1,000 in 1% goat serum in PBS at 4 °C. The cells were washed three times with PBS and incubated for 1 h in HRP-conjugated anti-rabbit goat antibody diluted 1:1,000 in 1% goat serum in PBS. Following incubation, the cells were washed four times with PBS. Chemiluminescence was developed with ImmunoStar LD reagent (Wako) and measured by ARVO MX (Perkin Elmer). Relative Met phosphorylation was calculated as (Chemiluminescence unit of sample−chemiluminescence unit of mock control)/(chemiluminescence unit of 1.3 nM hHGF−chemiluminescence unit of mock control).

[2] = tested on: Met, Gab1, Akt and Erk1/2; assay: Western blotting of Met and downstream signalling proteins; assay type: cell-based, human; details: starved EHMES-1 cells, hHGF 2 nM or dimers 100 nM, 10 min
Procedure: (§4) EHMES-1 cells were cultured in a six-well plate until they were 80%–90% confluent. After starvation for 6 h, the cells were stimulated with 2 nM hHGF or with 100 nM aML5-PEG3, aMD4-PEG11, aMD5-PEG11 or aMsD4-C6 for 10 min. Cells were then lysed with 200 μl of lysis buffer 17 (R&D Systems) containing 1 × Complete protease inhibitor cocktail (Roche). Lysates were analysed by SDS–PAGE analysis with 10% polyacrylamide gel and standard western blotting. The respective primary antibodies and HRP-conjugated secondary antibodies were diluted 1:2,000 in Can Get Signal Solution 1 (TOYOBO) and 1:5,000 in Can Get Signal Solution 2 (TOYOBO), respectively. Chemiluminescent signals were developed with Luminata Forte HRP substrate (Merck Millipore) and observed using an ImageQuant LAS 350 machine (GE Healthcare). Relative phosphorylation efficiency was evaluated by the band intensity and statistical differences between stimulants were calculated using Student’s t-test. The phospho-RTK array was performed using Proteome Profiler Human Phospho-RTK Array Kit (R&D Systems). For stimulation of cells with FBS, cells were cultured in the presence of 10% FBS, with or without excess concentrations of hHGF (30 nM) or aML5-PEG3 (3,000 nM) for 10 min. Cell lysates of stimulated EHMES-1 cells were analysed according to the manufacturer’s instructions.

[3] = tested on: 49 representative human RTKs; assay: Phospho-RTK array; assay type: cell-based
Procedure: as §4

c-Ret = assay: Transactivation of c-Ret; assay type: cell-based, human
Procedure: EHMES-1 cells were cultured in a 12-well plate until they were 80%–90% confluent. The cells were left untreated or stimulated with hHGF or aML5-PEG3 in the presence or absence of the indicated concentrations of the specific Met kinase inhibitor, SU11274 (Calbiochem). Cells were then lysed with 100 μl of Laemmli sample buffer. Lysates were sonicated and centrifuged for 15 min at 15,000 g. Supernatants were analysed by SDS–PAGE gel electrophoresis and western blotting, using anti-phosphorylated Met (Y1234/1235) mAb or anti-phosphorylated c-Ret (Y905) antibody.

HCC827 cells = assay: Cell growth assay in gefitinib-treated HCC827 cells; assay type: cell-based, human; details: HCC827 cells with 1 µM gefitinib
Procedure: Cells were plated at 2,500 cells per well in 96-well plates for calcein-AM staining or 7,500 cells per well in 48-well plates for cell counting. For HUVEC and HDMEC, plates were pre-coated with gelatin (Difco Laboratories, 0.1% for 1 h at 37 °C). After 3 h, the medium was removed and replaced with medium as follows: HUVEC and HDMEC were cultured in endothelial cell basal medium supplemented with 2% (HUVEC) or 1% (HDMEC) FCS, and 90 μg ml^−1 heparin, with or without hHGF or dimeric macrocycle. RPTEC were cultured in REBM supplemented with 0.5% FBS and 2.4 mM L-alanyl-L-glutamine, with or without hHGF or dimeric macrocycle. NHEK was cultured in KBM2 supplemented with 0.4% bovine pituitary extract, 0.33 μg ml^−1 hydrocortisone, 0.39 μg ml^−1 epinephrine, 10 μg ml^−1 transferrin and 1.8 mM CaCl2, with or without hHGF or dimeric macrocycle. […] The culture media (with or without hHGF or dimeric macrocycle) were replaced every second day. After 6 days, cells were stained with 5 μg ml^−1 calcein-AM (Dojindo) at 37 °C for 15 min. Fluorescence of living cells was detected by ARVO MX. Alternatively, cells were harvested with trypsin–EDTA solution, suspended in culture medium and the cell number was determined using a Countess Automated Cell Counter (Life Technologies). Statistical differences between stimulants were calculated using Student’s t-test.

HPAEC = assay: DNA synthesis (BrdU incorporation); assay type: cell-based, human; details: 30 nM dimeric macrocycle or 0.25 nM hHGF, 20 h
Procedure: Normal HPAECs were maintained in MCDB 131 medium supplemented with 5% FBS and 1.2 nM of basic fibroblast growth factor. Cells were serum starved for 24 h and then stimulated with 30 nM dimeric macrocycle or 0.25 nM hHGF in the presence of 5% FBS and 10 μM BrdU for 20 h. The cells were fixed in 4% PFA in PBS for 30 min, permeabilized with 0.2% Triton X-100 in PBS for 5 min, treated with 2 M HCl for 20 min and neutralized with 0.1 M sodium tetraborate for 5 min. The treated, neutralized cells were incubated with anti-BrdU primary antibody (BD Biosciences) for 2 h and subsequently stained with a fluorescently labelled secondary antibody for 30 min. The nuclei were stained with DAPI. BrdU incorporation was analysed by Biozero fluorescence microscopy (Keyence).

RPTEC = assay: Branching morphogenesis assay in RPTEC; assay type: cell-based, human; details: RPTEC in collagen gels, 8 days
Procedure: RPTEC (2 × 10^4 cells) were suspended in 400 μl Cellmatrix type IA collagen solution (Nitta Gelatin) in a 48-well plate and allowed to gel for 60 min at 37 °C, according to the manufacturer’s instructions. After gelation, 500 μl REBM supplemented with 0.5% FBS and 2.4 mM L-alanyl-L-glutamine, with or without hHGF (0.42 nM, 1.3 nM) or macrocycles (30 nM, 100 nM), were added to each well. Cells were cultured for 8 days, replacing the culture medium (with or without hHGF or dimeric macrocycle) every second day. HuCCT1 (1 × 10^4 cells) were suspended in 400 μl Cellmatrix type IA collagen solution in a 48-well plate and were allowed to gel for 60 min at 37 °C. After gelation, 500 μl RPMI1640 medium supplemented with 10% FBS, with or without 0.38 nM hHGF or 20 nM dimeric macrocycle, was added to each well. Cells were cultured for 8 days, replacing the culture medium (with or without hHGF or dimeric macrocycle) every second day. TAC-2 cells (4 × 10^3 cells) were suspended in 400 μl type I collagen solution (BD Biosciences) in a 48-well plate. After gelation, 500 μl DMEM supplemented with 10% FBS, with or without hHGF or dimeric macrocycle, was added to each well. Cells were cultured for 7 days, replacing the culture medium (with or without hHGF or dimeric macrocycle) every second day.

human Met ectodomain [4] = biological target: T1, human Met ectodomain; assay: SPR analysis of macrocycle binding to immobilized human Met ectodomain-Fc
Procedure: as §1

[5] = biological target: T5, Recombinant human Met ectodomain-Fc chimera protein (human, UniProt P08581 25-932); assay: SPR; Biacore T200; human Met ectodomain-Fc captured (1,200-1,600 RU) on a CM5 chip with a human antibody capture kit; monomeric macrocycle or linear peptide injected at 30 µl/min, single-cycle kinetics; HBS EP+ (10 mM Hepes pH 7.4, 150 mM NaCl, 3 mM EDTA, 0.05% Surfactant P20) with 0.1% DMSO; 1:1 binding model; details: both partners purified
T5 construct: Hepatocyte growth factor receptor (Met), human, ectodomain; Captured through its Fc with a human antibody capture kit in a1 and a2; injected as analyte in a3; also called human Met extracellular domain; source: bought: Sino Biological Inc
T5 sequence (P08581 25-932, stated change not applied): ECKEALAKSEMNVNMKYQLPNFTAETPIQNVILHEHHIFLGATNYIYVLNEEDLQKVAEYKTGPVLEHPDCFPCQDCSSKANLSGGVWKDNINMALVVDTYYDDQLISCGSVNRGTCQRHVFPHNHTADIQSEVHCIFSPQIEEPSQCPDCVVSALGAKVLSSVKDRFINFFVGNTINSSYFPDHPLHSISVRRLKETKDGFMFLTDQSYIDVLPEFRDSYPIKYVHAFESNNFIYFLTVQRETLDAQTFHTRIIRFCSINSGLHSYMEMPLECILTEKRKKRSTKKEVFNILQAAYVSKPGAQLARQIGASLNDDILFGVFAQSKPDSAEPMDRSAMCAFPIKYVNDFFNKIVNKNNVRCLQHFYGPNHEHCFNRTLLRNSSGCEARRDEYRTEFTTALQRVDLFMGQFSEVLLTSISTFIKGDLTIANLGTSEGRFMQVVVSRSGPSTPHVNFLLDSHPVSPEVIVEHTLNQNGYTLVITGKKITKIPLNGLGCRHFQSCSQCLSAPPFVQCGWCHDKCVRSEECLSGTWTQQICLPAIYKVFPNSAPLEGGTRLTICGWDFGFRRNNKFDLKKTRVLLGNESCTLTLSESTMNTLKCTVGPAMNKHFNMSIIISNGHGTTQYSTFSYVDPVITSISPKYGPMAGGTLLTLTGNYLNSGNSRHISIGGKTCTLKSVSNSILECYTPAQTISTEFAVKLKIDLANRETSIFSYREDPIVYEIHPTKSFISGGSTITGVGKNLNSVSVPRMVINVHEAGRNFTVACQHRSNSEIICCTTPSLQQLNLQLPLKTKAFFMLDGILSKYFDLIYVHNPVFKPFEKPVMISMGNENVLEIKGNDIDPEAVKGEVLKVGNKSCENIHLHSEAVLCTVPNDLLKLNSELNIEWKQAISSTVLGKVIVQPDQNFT

[6] = 10% FBS, hHGF 30 nM or aML5-PEG3 3,000 nM

T1 sequence (P08581 25-932 limits assumed): as the sequence (P08581 25-932, stated change not applied) above

With “hHGF: human recombinant hepatocyte growth factor, positive control” the “binding to human Met ectodomain” value (human Met ectodomain [1]) was “binding of the immobilized hHGF to all three of the ectodomains”, the “binding to murine Met ectodomain” value (murine Met ectodomain) was “binding of the immobilized hHGF to all three of the ectodomains” and the “binding to canine Met ectodomain” value (canine Met ectodomain) was “binding of the immobilized hHGF to all three of the ectodomains”. For the same molecule, the “concentration above which Met phosphorylation level decreased (bell-shaped response)” value (Met (Y1234/1235)) was “above 5 nM”, the “phosphorylation of Met and downstream proteins (Gab1, Akt, Erk1/2)” value [2] was “Met was phosphorylated at the Y1234/1235 and Y1349 residues” and the “Met phosphorylation at excess concentration” value [3, 6] was “strongly induced Met phosphorylation”. For the same molecule, the “effect on RTKs phosphorylated in FBS-containing media” value [3, 6] was “neither affected the phosphorylation level of the RTKs”, the RTK phosphorylation selectivity ([3]; EHMES-1 cells, 100 nM dimeric macrocycles or 2 nM hHGF, 10 min, without FBS) was “specifically phosphorylated Met” and the c-Ret phosphorylation (c-Ret; EHMES-1 cells, FBS-containing media) was “induced c-Ret phosphorylation in a dose-dependent manner”. The restoration of proliferation (HCC827 cells) was “restored in a dose-dependent manner”, the “DNA synthesis (BrdU incorporation)” value (HPAEC) was “promoted DNA synthesis” and the branched tubule formation (RPTEC) was “developed branched tubules”.

In the case of `Cc1[nH]c(/C=C2\C(=O)Nc3ccc(S(=O)(=O)N(C)c4cccc(Cl)c4)cc32)c(C)c1C(=O)N1CCN(C)CC1` [SU11274, reference compound], the “effect of Met inhibitor on c-Ret phosphorylation” value (c-Ret; EHMES-1 cells stimulated with 1 nM hHGF or 100 nM aML5-PEG3) is reported as “decreased c-Ret phosphorylation”.

With “aML5-Lin: linear counterpart of aML5 (Ac-YISWNEFNSPNWRFITAG-NH2)” the “KD relative to parental peptides” value (human Met ectodomain [4]) was “approximately two orders of magnitude higher”.

In the case of “biotinylated hHGF: hHGF biotinylated using NH2-Reactive Biotin, 1.5 biotin per hHGF”, the “Met Y1234/1235 phosphorylation (agonist activity)” value (Met (Y1234/1235); 10 min stimulation, 10% FBS) is reported as “equivalent to that of hHGF”.

B1: aML5 (peptide)
peptide: {CH2CO}-YISWNEFNSPNWRFITCG-NH2
modifications: thioether N-17
SMILES: CC[C@H](C)[C@@H]1NC(=O)[C@H](Cc2ccc(O)cc2)NC(=O)CSC[C@@H](C(=O)NCC(N)=O)NC(=O)[C@H]([C@@H](C)O)NC(=O)[C@H]([C@@H](C)CC)NC(=O)[C@H](Cc2ccccc2)NC(=O)[C@H](CCCNC(=N)N)NC(=O)[C@H](Cc2c[nH]c3ccccc23)NC(=O)[C@H](CC(N)=O)NC(=O)[C@@H]2CCCN2C(=O)[C@H](CO)NC(=O)[C@H](CC(N)=O)NC(=O)[C@H](Cc2ccccc2)NC(=O)[C@H](CCC(=O)O)NC(=O)[C@H](CC(N)=O)NC(=O)[C@H](Cc2c[nH]c3ccccc23)NC(=O)[C@H](CO)NC1=O
notes: thioether macrocycle selected by RaPID from the L-library against human Met ectodomain; also called anti-Met L-library macrocycle 5; source: synthetic peptide (Fmoc SPPS, RP-HPLC purified)
With B1 the Kd [5] was 19 nM, the koff [5] was 0.0081 s⁻¹ and the kon [5] was 430000 M⁻¹ s⁻¹.

B2: aML5-Lin (peptide)
peptide: Ac-YISWNEFNSPNWRFITAG-NH2
notes: linear form of aML5, Ala in place of the ring-closing Cys; also called linear counterpart of aML5; source: synthetic peptide
Work on B2 yielded a Kd [5] of 1300 nM, a koff [5] of 0.017 s⁻¹ and a kon [5] of 13000 M⁻¹ s⁻¹.

From article PMC4382702, “Artificial human Met agonists based on macrocycle scaffolds” (Nature Communications, 2015)
